Data taken from US9260500B2, “Peptide and use thereof” (Takeda Pharmaceutical Company Limited, priority 2009, dated 2016).
Starred links: 1 amine or outer side, 2 acyl side, 3 side chain; linkers in the order of their positions; H or OH if unused. Non-standard residues stand in square brackets, D forms with d. Tyr(Me) = O-methyltyrosine, COc1ccc(C[C@H](N[*:1])C(=O)[*:2])cc1; Phe(3-Me) = Cc1cccc(C[C@H](N)C(=O)O)c1; Phe(4-F) = N[C@@H](Cc1ccc(F)cc1)C(=O)O; 1Nal = N[C@@H](Cc1cccc2ccccc12)C(=O)O; Phe(2-Me) = Cc1ccccc1C[C@H](N)C(=O)O; 4Pal = N[C@@H](Cc1ccncc1)C(=O)O; Cha = N[C@@H](CC1CCCCC1)C(=O)O; dIva = CC[C@@](C)(N)C(=O)O; Iva = CC[C@](C)(N)C(=O)O; NMeA = CN[C@@H](C)C(=O)O; Aib = CC(C)(N)C(=O)O; Sar = CNCC(=O)O

Columns and labels:
human Y2 receptor [1] = biological target: T1, human Y2 receptor (Homo sapiens, UniProt P49146); assay: Human Y2 Receptor G Protein Binding Assay (GBA), [35S]GTPγS; assay type: biochemical; conditions: EC50 of test compound/EC50 of PYY(3-36) (PYY3-36 taken as 1), hY2R/CHO membrane fraction
T1 construct: expressed in transfected cells; membrane fraction
T1 sequence (P49146 1-381): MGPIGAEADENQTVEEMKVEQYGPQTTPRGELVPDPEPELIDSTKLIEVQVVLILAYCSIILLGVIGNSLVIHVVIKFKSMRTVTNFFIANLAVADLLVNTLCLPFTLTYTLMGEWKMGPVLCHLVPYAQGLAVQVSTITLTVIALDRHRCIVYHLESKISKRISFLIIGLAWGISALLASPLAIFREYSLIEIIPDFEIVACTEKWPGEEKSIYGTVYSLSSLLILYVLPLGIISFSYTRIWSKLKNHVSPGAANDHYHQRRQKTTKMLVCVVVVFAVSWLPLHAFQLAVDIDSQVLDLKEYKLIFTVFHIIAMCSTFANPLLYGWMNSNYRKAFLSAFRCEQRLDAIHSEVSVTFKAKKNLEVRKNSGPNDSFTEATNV
Outline: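 Agonism measured as [35S]GTPγS binding, read by GF/C filtration and scintillation counting after 120 min at room temperature, using human Y2 membranes at 1 μg protein/mL in pH 7.4 Tris/MgCl2/NaCl/GDP buffer. Compound serially diluted 100 μM–1 nM; EC50 normalized to PYY(3-36) (ratio = compound/PYY).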

human Y2 receptor [2] = biological target: T1, human Y2 receptor; assay: Receptor Binding Assay (RBA) for Human Y2, [125I]-PYY displacement on hY2R/CHO membrane fraction; conditions: IC50 of test compound/IC50 of PYY(3-36) (PYY(3-36) taken as 1)
Outline: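 Read-out is [125I]-PYY displacement from membranes of CHO/dhfr− cells stably transfected with human Y2R. Membranes were obtained by disrupting cells in a buffer of 10 mM NaHCO3, 5 mM EDTA and protease inhibitors.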

Substance | GBA EC50 Ratio (human Y2 receptor [1]) | RBA IC50 Ratio (human Y2 receptor [2])
Ac-[D-Pro24, Pya(4)26, Cha27,36, Aib28, Lys30, Iva31]-PYY(23-36) (Ac-S[dP]R[4Pal][Cha][Aib]NK[Iva]TRQR[Cha]-NH2; SMILES CC[C@](C)(NC(=O)[C@H](CCCCN)NC(=O)[C@H](CC(N)=O)NC(=O)C(C)(C)NC(=O)[C@H](CC1CCCCC1)NC(=O)[C@H](Cc1ccncc1)NC(=O)[C@H](CCCNC(=N)N)NC(=O)[C@H]1CCCN1C(=O)[C@H](CO)NC(C)=O)C(=O)N[C@H](C(=O)N[C@@H](CCCNC(=N)N)C(=O)N[C@@H](CCC(N)=O)C(=O)N[C@@H](CCCNC(=N)N)C(=O)N[C@@H](CC1CCCCC1)C(N)=O)[C@@H](C)O) [compound No. 231] | 2.1 | 0.85
Ac-[D-Pro24, Pya(4)26, Cha27,36, D-Iva28,31, Lys30]-PYY(23-36) (Ac-S[dP]R[4Pal][Cha][dIva]NK[dIva]TRQR[Cha]-NH2; SMILES CC[C@@](C)(NC(=O)[C@H](CC1CCCCC1)NC(=O)[C@H](Cc1ccncc1)NC(=O)[C@H](CCCNC(=N)N)NC(=O)[C@H]1CCCN1C(=O)[C@H](CO)NC(C)=O)C(=O)N[C@@H](CC(N)=O)C(=O)N[C@@H](CCCCN)C(=O)N[C@](C)(CC)C(=O)N[C@H](C(=O)N[C@@H](CCCNC(=N)N)C(=O)N[C@@H](CCC(N)=O)C(=O)N[C@@H](CCCNC(=N)N)C(=O)N[C@@H](CC1CCCCC1)C(N)=O)[C@@H](C)O) [compound No. 247] | 1.6 | 0.70
Ac-[D-Pro24, Pya(4)26, Cha27,36, D-Iva28, Lys30, Aib31]-PYY(23-36) (Ac-S[dP]R[4Pal][Cha][dIva]NK[Aib]TRQR[Cha]-NH2; SMILES CC[C@@](C)(NC(=O)[C@H](CC1CCCCC1)NC(=O)[C@H](Cc1ccncc1)NC(=O)[C@H](CCCNC(=N)N)NC(=O)[C@H]1CCCN1C(=O)[C@H](CO)NC(C)=O)C(=O)N[C@@H](CC(N)=O)C(=O)N[C@@H](CCCCN)C(=O)NC(C)(C)C(=O)N[C@H](C(=O)N[C@@H](CCCNC(=N)N)C(=O)N[C@@H](CCC(N)=O)C(=O)N[C@@H](CCCNC(=N)N)C(=O)N[C@@H](CC1CCCCC1)C(N)=O)[C@@H](C)O) [compound No. 234] | 2.6 | 1.7
Ac-[D-Pro24, Pya(4)26, Cha27,36, D-Iva28, Lys30, Iva31]-PYY(23-36) (Ac-S[dP]R[4Pal][Cha][dIva]NK[Iva]TRQR[Cha]-NH2; SMILES CC[C@@](C)(NC(=O)[C@H](CC1CCCCC1)NC(=O)[C@H](Cc1ccncc1)NC(=O)[C@H](CCCNC(=N)N)NC(=O)[C@H]1CCCN1C(=O)[C@H](CO)NC(C)=O)C(=O)N[C@@H](CC(N)=O)C(=O)N[C@@H](CCCCN)C(=O)N[C@@](C)(CC)C(=O)N[C@H](C(=O)N[C@@H](CCCNC(=N)N)C(=O)N[C@@H](CCC(N)=O)C(=O)N[C@@H](CCCNC(=N)N)C(=O)N[C@@H](CC1CCCCC1)C(N)=O)[C@@H](C)O) [compound No. 248] | 1.1 | 3.4
Ac-[D-Pro24, Pya(4)26, Cha27,36, Iva28,31, Lys30]-PYY(23-36) (Ac-S[dP]R[4Pal][Cha][Iva]NK[Iva]TRQR[Cha]-NH2; SMILES CC[C@](C)(NC(=O)[C@H](CC1CCCCC1)NC(=O)[C@H](Cc1ccncc1)NC(=O)[C@H](CCCNC(=N)N)NC(=O)[C@H]1CCCN1C(=O)[C@H](CO)NC(C)=O)C(=O)N[C@@H](CC(N)=O)C(=O)N[C@@H](CCCCN)C(=O)N[C@@](C)(CC)C(=O)N[C@H](C(=O)N[C@@H](CCCNC(=N)N)C(=O)N[C@@H](CCC(N)=O)C(=O)N[C@@H](CCCNC(=N)N)C(=O)N[C@@H](CC1CCCCC1)C(N)=O)[C@@H](C)O) [compound No. 246] | 1 | 0.31
Ac-[D-Pro24, Pya(4)26, Cha27, Aib28,31, Lys30, Phe(2Me)36]-PYY(23-36) (Ac-S[dP]R[4Pal][Cha][Aib]NK[Aib]TRQR[Phe(2-Me)]-NH2; SMILES CC(=O)N[C@@H](CO)C(=O)N1CCC[C@@H]1C(=O)N[C@@H](CCCNC(=N)N)C(=O)N[C@@H](Cc1ccncc1)C(=O)N[C@@H](CC1CCCCC1)C(=O)NC(C)(C)C(=O)N[C@@H](CC(N)=O)C(=O)N[C@@H](CCCCN)C(=O)NC(C)(C)C(=O)N[C@H](C(=O)N[C@@H](CCCNC(=N)N)C(=O)N[C@@H](CCC(N)=O)C(=O)N[C@@H](CCCNC(=N)N)C(=O)N[C@@H](Cc1ccccc1C)C(N)=O)[C@@H](C)O) [compound No. 257] | 0.98 | 1.0
Ac-[D-Pro24, Pya(4)26, Cha27, Aib28,31, Lys30, Phe(3Me)36]-PYY(23-36) (Ac-S[dP]R[4Pal][Cha][Aib]NK[Aib]TRQR[Phe(3-Me)]-NH2; SMILES CC(=O)N[C@@H](CO)C(=O)N1CCC[C@@H]1C(=O)N[C@@H](CCCNC(=N)N)C(=O)N[C@@H](Cc1ccncc1)C(=O)N[C@@H](CC1CCCCC1)C(=O)NC(C)(C)C(=O)N[C@@H](CC(N)=O)C(=O)N[C@@H](CCCCN)C(=O)NC(C)(C)C(=O)N[C@H](C(=O)N[C@@H](CCCNC(=N)N)C(=O)N[C@@H](CCC(N)=O)C(=O)N[C@@H](CCCNC(=N)N)C(=O)N[C@@H](Cc1cccc(C)c1)C(N)=O)[C@@H](C)O) [compound No. 260] | 1.2 | 0.91
Ac-[D-Pro24, Pya(4)26, Nal(1)27, Aib28,31, Lys30, Cha36]-PYY(23-36) (Ac-S[dP]R[4Pal][1Nal][Aib]NK[Aib]TRQR[Cha]-NH2; SMILES CC(=O)N[C@@H](CO)C(=O)N1CCC[C@@H]1C(=O)N[C@@H](CCCNC(=N)N)C(=O)N[C@@H](Cc1ccncc1)C(=O)N[C@@H](Cc1cccc2ccccc12)C(=O)NC(C)(C)C(=O)N[C@@H](CC(N)=O)C(=O)N[C@@H](CCCCN)C(=O)NC(C)(C)C(=O)N[C@H](C(=O)N[C@@H](CCCNC(=N)N)C(=O)N[C@@H](CCC(N)=O)C(=O)N[C@@H](CCCNC(=N)N)C(=O)N[C@@H](CC1CCCCC1)C(N)=O)[C@@H](C)O) [compound No. 306] | 1.7 | 2.9
Ac-[D-Pro24, Pya(4)26, Phe(4F)27, Aib28,31, Lys30, Cha36]-PYY(23-36) (Ac-S[dP]R[4Pal][Phe(4-F)][Aib]NK[Aib]TRQR[Cha]-NH2; SMILES CC(=O)N[C@@H](CO)C(=O)N1CCC[C@@H]1C(=O)N[C@@H](CCCNC(=N)N)C(=O)N[C@@H](Cc1ccncc1)C(=O)N[C@@H](Cc1ccc(F)cc1)C(=O)NC(C)(C)C(=O)N[C@@H](CC(N)=O)C(=O)N[C@@H](CCCCN)C(=O)NC(C)(C)C(=O)N[C@H](C(=O)N[C@@H](CCCNC(=N)N)C(=O)N[C@@H](CCC(N)=O)C(=O)N[C@@H](CCCNC(=N)N)C(=O)N[C@@H](CC1CCCCC1)C(N)=O)[C@@H](C)O) [compound No. 305] | 3.9 | 10
Ac-[D-Pro24, Tyr(Me)26, Cha27,36, Aib28,31, Lys30]-PYY(23-36) (Ac-S[dP]R[Tyr(Me)][Cha][Aib]NK[Aib]TRQR[Cha]-NH2; SMILES COc1ccc(C[C@H](NC(=O)[C@H](CCCNC(=N)N)NC(=O)[C@H]2CCCN2C(=O)[C@H](CO)NC(C)=O)C(=O)N[C@@H](CC2CCCCC2)C(=O)NC(C)(C)C(=O)N[C@@H](CC(N)=O)C(=O)N[C@@H](CCCCN)C(=O)NC(C)(C)C(=O)N[C@H](C(=O)N[C@@H](CCCNC(=N)N)C(=O)N[C@@H](CCC(N)=O)C(=O)N[C@@H](CCCNC(=N)N)C(=O)N[C@@H](CC2CCCCC2)C(N)=O)[C@@H](C)O)cc1) [compound No. 348] | 1.4 | 0.88
Ac-[D-Ser23, MeAla24, Cha27,28,36, Aib31]-PYY(23-36) (Ac-[dS][NMeA]RH[Cha][Cha]NL[Aib]TRQR[Cha]-NH2; SMILES CC(=O)N[C@H](CO)C(=O)N(C)[C@@H](C)C(=O)N[C@@H](CCCNC(=N)N)C(=O)N[C@@H](Cc1c[nH]cn1)C(=O)N[C@@H](CC1CCCCC1)C(=O)N[C@@H](CC1CCCCC1)C(=O)N[C@@H](CC(N)=O)C(=O)N[C@@H](CC(C)C)C(=O)NC(C)(C)C(=O)N[C@H](C(=O)N[C@@H](CCCNC(=N)N)C(=O)N[C@@H](CCC(N)=O)C(=O)N[C@@H](CCCNC(=N)N)C(=O)N[C@@H](CC1CCCCC1)C(N)=O)[C@@H](C)O) [compound No. 109] | 5.1 | 6.1
Ac-[D-Ser23, Sar24, Cha27,28,36, Aib31]-PYY(23-36) (Ac-[dS][Sar]RH[Cha][Cha]NL[Aib]TRQR[Cha]-NH2; SMILES CC(=O)N[C@H](CO)C(=O)N(C)CC(=O)N[C@@H](CCCNC(=N)N)C(=O)N[C@@H](Cc1c[nH]cn1)C(=O)N[C@@H](CC1CCCCC1)C(=O)N[C@@H](CC1CCCCC1)C(=O)N[C@@H](CC(N)=O)C(=O)N[C@@H](CC(C)C)C(=O)NC(C)(C)C(=O)N[C@H](C(=O)N[C@@H](CCCNC(=N)N)C(=O)N[C@@H](CCC(N)=O)C(=O)N[C@@H](CCCNC(=N)N)C(=O)N[C@@H](CC1CCCCC1)C(N)=O)[C@@H](C)O) [compound No. 111] | 5.3 | 6.6
